According to publication PMC8965725:

Target: NRP-1 expressed on GL261 cells (mouse (endogenous in GL261)) (UniProt P97333)

cellular FITC fluorescence of GL261 cells incubated with FITC-labeled NPs, flow cytometry, normalized to cells without treatment (cellular internalization): 42%
Substance: RGE fusion protein nanoparticles (RGE peptide-linker-HFn) (designed binder)
